In the Immune Epitope Database (IEDB):

Assays:
[1] = molecular target: HLA-B*15:03; assay: IEDB peptide-MHC binding, purified MHC/competitive/radioactivity; filed as Kd, often an IC50 or EC50 that approximates it; ≥ and ≤ were set here for values at or beyond the usual limits of such assays
[2] = molecular target: HLA-A*24:03; assay: IEDB peptide-MHC binding, purified MHC/direct/fluorescence; filed as Kd, often an IC50 or EC50 that approximates it; ≥ and ≤ were set here for values at or beyond the usual limits of such assays
[3] = molecular target: HLA-A*02:16; assay: as above; conditions: source organism: Zaire ebolavirus
[4] = molecular target: HLA-A*02:03; assay: as above; conditions: source organism: Zaire ebolavirus
[5] = molecular target: HLA-A*03:01; assay: as above
[6] = molecular target: HLA-A*02:19; assay: as above; conditions: source organism: Zaire ebolavirus
[7] = molecular target: HLA-A*02:12; assay: as above; conditions: source organism: Zaire ebolavirus
[8] = molecular target: HLA-A*02:11; assay: as above; conditions: source organism: Zaire ebolavirus
[9] = molecular target: HLA-A*68:02; assay: as above; conditions: source organism: Zaire ebolavirus
[10] = molecular target: HLA-B*18:01; assay: IEDB peptide-MHC binding, purified MHC/competitive/fluorescence; filed as Kd, often an IC50 or EC50 that approximates it; ≥ and ≤ were set here for values at or beyond the usual limits of such assays; conditions: source organism: Zaire ebolavirus
[11] = molecular target: HLA-B*46:01; assay: as above; conditions: source organism: Zaire ebolavirus
[12] = molecular target: HLA-A*02:01; assay: as above; conditions: source organism: Zaire ebolavirus
[13] = molecular target: HLA-A*69:01; assay: as above; conditions: source organism: Zaire ebolavirus
[14] = molecular target: HLA-B*15:01; assay: as above; conditions: source organism: Zaire ebolavirus
[15] = molecular target: HLA-B*15:17; assay: as above; conditions: source organism: Zaire ebolavirus
[16] = molecular target: HLA-B*39:01; assay: as above; conditions: source organism: Zaire ebolavirus
[17] = molecular target: HLA-B*27:03; assay: as above; conditions: source organism: Zaire ebolavirus
[18] = molecular target: HLA-B*51:01; assay: as above; conditions: source organism: Zaire ebolavirus
[19] = molecular target: HLA-A*26:01; assay: as above; conditions: source organism: Zaire ebolavirus
[20] = molecular target: HLA-B*57:01; assay: as above; conditions: source organism: Zaire ebolavirus
[21] = molecular target: HLA-A*03:01; assay: IEDB peptide-MHC binding, purified MHC/competitive/fluorescence; ≥ and ≤ were set here for values at or beyond the usual limits of such assays; conditions: source organism: Vaccinia virus
[22] = molecular target: HLA-A*02:01; assay: as above; conditions: source organism: Vaccinia virus
[23] = molecular target: HLA-B*08:01; assay: IEDB peptide-MHC binding, purified MHC/competitive/radioactivity; filed as Kd, often an IC50 or EC50 that approximates it; ≥ and ≤ were set here for values at or beyond the usual limits of such assays; conditions: source organism: Vaccinia virus WR
[24] = molecular target: HLA-A*30:01; assay: as above; conditions: source organism: Vaccinia virus WR
[25] = molecular target: HLA-A*32:01; assay: as above; conditions: source organism: Vaccinia virus WR
[26] = molecular target: HLA-B*15:01; assay: as above; conditions: source organism: Vaccinia virus WR
[27] = molecular target: HLA-B*08:01; assay: IEDB peptide-MHC binding, purified MHC/direct/fluorescence; filed as Kd, often an IC50 or EC50 that approximates it; ≥ and ≤ were set here for values at or beyond the usual limits of such assays; conditions: source organism: Pseudomonas aeruginosa
[28] = molecular target: HLA-B*35:01; assay: as above; conditions: source organism: Pseudomonas aeruginosa
[29] = molecular target: HLA-A*02:01; assay: as above; conditions: source organism: Pseudomonas aeruginosa
[30] = molecular target: HLA-B*07:02; assay: as above; conditions: source organism: Pseudomonas aeruginosa
[31] = molecular target: HLA-A*69:01; assay: as above; conditions: source organism: Pseudomonas aeruginosa
[32] = molecular target: HLA-A*31:01; assay: as above; conditions: source organism: Pseudomonas aeruginosa
[33] = molecular target: HLA-B*15:01; assay: as above; conditions: source organism: Pseudomonas aeruginosa
[34] = molecular target: HLA-B*27:05; assay: as above; conditions: source organism: Pseudomonas aeruginosa
[35] = molecular target: HLA-A*11:01; assay: as above; conditions: source organism: Pseudomonas aeruginosa
[36] = molecular target: HLA-B*40:01; assay: as above; conditions: source organism: Pseudomonas aeruginosa
[37] = molecular target: HLA-A*01:01; assay: as above; conditions: source organism: Pseudomonas aeruginosa
[38] = molecular target: HLA-A*26:01; assay: as above; conditions: source organism: Pseudomonas aeruginosa
[39] = molecular target: HLA-B*58:01; assay: as above; conditions: source organism: Pseudomonas aeruginosa
[40] = molecular target: HLA-A*02:03; assay: IEDB peptide-MHC binding, purified MHC/competitive/radioactivity; filed as Kd, often an IC50 or EC50 that approximates it; ≥ and ≤ were set here for values at or beyond the usual limits of such assays; conditions: source organism: Vaccinia virus WR
[41] = molecular target: HLA-A*02:02; assay: as above; conditions: source organism: Vaccinia virus WR
[42] = molecular target: HLA-A*02:06; assay: as above; conditions: source organism: Vaccinia virus WR
[43] = molecular target: HLA-A*29:02; assay: IEDB peptide-MHC binding, purified MHC/direct/fluorescence; filed as Kd, often an IC50 or EC50 that approximates it; ≥ and ≤ were set here for values at or beyond the usual limits of such assays; conditions: source organism: Zaire ebolavirus
[44] = source organism: Vaccinia virus WR
[45] = source organism: Zaire ebolavirus
[46] = source organism: Pseudomonas aeruginosa

Sequence: AKSQSDTVF
- Kd [1, 44]: 0.00016 µM

Sequence: FMYFCEQKL
- Kd [1, 44]: 0.0357 µM

Sequence: FSMLGIWFF
- Kd ([1]; source organism: Vaccinia virus Copenhagen): 0.0283 µM

Sequence: IEVSSDISF
- Kd [1, 44]: 0.00974 µM

Sequence: IFLKPDETF
- Kd ([2]; source organism: Sudan ebolavirus - Maleo (1979)): 0.0366 µM
- Kd [3]: ≥ 20 µM
- Kd [4]: ≥ 20 µM
- Kd [5, 45]: ≥ 20 µM
- Kd [6]: ≥ 20 µM
- Kd [7]: ≥ 20 µM
- Kd [8]: ≥ 20 µM
- Kd [9]: ≥ 20 µM
- Kd [10]: ≥ 20 µM
- Kd [11]: ≥ 20 µM
- Kd [12]: ≥ 20 µM
- Kd [13]: ≥ 20 µM
- Kd [14]: ≥ 20 µM
- Kd [15]: ≥ 20 µM
- Kd [16]: ≥ 20 µM
- Kd [17]: ≥ 20 µM
- Kd [18]: ≥ 20 µM
- Kd [19]: ≥ 20 µM
- Kd [20]: ≥ 20 µM

Sequence: KIVMTPSPF
- Kd [1, 44]: 0.211 µM

Sequence: LKSPKRCSF
- Kd [1, 44]: 0.00274 µM

Sequence: LLLQKYPPP
- IC50 [21]: ≥ 416 µM
- IC50 [22]: 34.1 µM

Sequence: LMFKHLLHP
- Kd [1, 44]: 0.0259 µM
- Kd [23]: 0.00104 µM
- Kd [24]: 0.504 µM
- Kd [25]: 11.3 µM
- Kd [26]: 0.103 µM

Sequence: LMMTLPSIF
- Kd [1, 44]: 0.000152 µM

Sequence: LPQTRWQAV
- Kd [27]: 0.189 µM
- Kd [2, 46]: ≥ 20 µM
- Kd [28]: 0.088 µM
- Kd [5, 46]: ≥ 20 µM
- Kd [29]: ≥ 20 µM
- Kd [30]: 0.0283 µM
- Kd [31]: ≥ 20 µM
- Kd [32]: ≥ 20 µM
- Kd [33]: ≥ 20 µM
- Kd [34]: ≥ 20 µM
- Kd [35]: ≥ 20 µM
- Kd [36]: ≥ 20 µM
- Kd [37]: ≥ 20 µM
- Kd [38]: ≥ 20 µM
- Kd [39]: ≥ 20 µM

Sequence: LQISRVNDL
- Kd [1, 44]: 0.0344 µM
- Kd [40]: 0.0115 µM
- Kd [41]: 0.0898 µM
- Kd [42]: 0.229 µM

Sequence: LTIACRVSL
- Kd [1, 44]: 0.599 µM
- Kd [23]: 0.731 µM
- Kd [24]: 0.475 µM
- Kd [25]: 0.0958 µM
- Kd [26]: 0.0758 µM

Sequence: RMFGSKPTF
- Kd [1, 44]: 0.000206 µM
- Kd [23]: 7.87 µM
- Kd [24]: 6.25 µM
- Kd [25]: 9.8 µM
- Kd [26]: 7.51 µM

Sequence: SQTIELIAF
- Kd [1, 44]: 0.000206 µM

Sequence: SQVRVPTVF
- Kd ([2]; source organism: Sudan ebolavirus - Uganda (2000)): ≥ 20 µM
- Kd [3]: ≥ 20 µM
- Kd [43]: ≥ 20 µM
- Kd [4]: ≥ 20 µM
- Kd [5, 45]: ≥ 20 µM
- Kd [6]: ≥ 20 µM
- Kd [7]: ≥ 20 µM
- Kd [8]: ≥ 20 µM
- Kd [9]: ≥ 20 µM
- Kd [11]: ≥ 20 µM
- Kd [12]: ≥ 20 µM
- Kd [13]: ≥ 20 µM
- Kd [15]: ≥ 20 µM
- Kd [16]: ≥ 20 µM
- Kd [17]: ≥ 20 µM
- Kd [18]: ≥ 20 µM
- Kd [19]: ≥ 20 µM
- Kd [20]: ≥ 20 µM

Sequence: VMSQEDNHF
- Kd [1, 44]: 0.102 µM
- Kd [26]: 0.192 µM

Sequence: VVAVGGLAI
- Kd [27]: ≥ 20 µM
- Kd [2, 46]: ≥ 20 µM
- Kd [28]: 6.12 µM
- Kd [5, 46]: ≥ 20 µM
- Kd [29]: ≥ 20 µM
- Kd [30]: 0.251 µM
- Kd [32]: ≥ 20 µM
- Kd [33]: 0.144 µM
- Kd [34]: ≥ 20 µM
- Kd [35]: ≥ 20 µM
- Kd [36]: ≥ 20 µM
- Kd [37]: ≥ 20 µM
- Kd [38]: ≥ 20 µM
- Kd [39]: ≥ 20 µM

Sequence: YMSSEPIIF
- Kd [1, 44]: 0.000304 µM
